Measured values reported in patent US20190248863A1 (published 2019).

Tests used:
Test in all cases: cell-based or functional assay
human RXFP1 = molecular target: T1, human RXFP1 (human, UniProt Q9HBX9 1-757)
T1 sequence (looked up): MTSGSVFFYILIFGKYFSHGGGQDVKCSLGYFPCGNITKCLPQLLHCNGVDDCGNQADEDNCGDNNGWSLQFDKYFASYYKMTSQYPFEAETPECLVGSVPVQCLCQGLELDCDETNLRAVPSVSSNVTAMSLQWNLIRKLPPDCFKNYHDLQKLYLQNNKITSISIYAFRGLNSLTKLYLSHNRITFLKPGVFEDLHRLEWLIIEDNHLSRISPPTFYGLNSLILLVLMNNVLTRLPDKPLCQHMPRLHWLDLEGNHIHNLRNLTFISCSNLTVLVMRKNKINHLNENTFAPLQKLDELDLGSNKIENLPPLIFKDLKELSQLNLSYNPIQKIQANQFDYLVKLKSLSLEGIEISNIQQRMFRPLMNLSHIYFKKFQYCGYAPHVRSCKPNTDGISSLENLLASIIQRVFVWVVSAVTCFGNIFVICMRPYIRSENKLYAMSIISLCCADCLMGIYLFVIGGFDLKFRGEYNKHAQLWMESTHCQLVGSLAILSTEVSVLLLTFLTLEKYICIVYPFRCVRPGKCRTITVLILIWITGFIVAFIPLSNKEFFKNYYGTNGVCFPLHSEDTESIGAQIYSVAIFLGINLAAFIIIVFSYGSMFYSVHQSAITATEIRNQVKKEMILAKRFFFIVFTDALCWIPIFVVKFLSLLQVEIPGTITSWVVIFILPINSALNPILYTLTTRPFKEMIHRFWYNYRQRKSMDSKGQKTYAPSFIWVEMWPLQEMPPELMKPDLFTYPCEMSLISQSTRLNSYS

cynomolgus monkey RXFP1 = molecular target: T2, cynomolgus monkey RXFP1 (cynomolgus monkey, UniProt H9ERA2 1-757 (rhesus entry))
T2 sequence: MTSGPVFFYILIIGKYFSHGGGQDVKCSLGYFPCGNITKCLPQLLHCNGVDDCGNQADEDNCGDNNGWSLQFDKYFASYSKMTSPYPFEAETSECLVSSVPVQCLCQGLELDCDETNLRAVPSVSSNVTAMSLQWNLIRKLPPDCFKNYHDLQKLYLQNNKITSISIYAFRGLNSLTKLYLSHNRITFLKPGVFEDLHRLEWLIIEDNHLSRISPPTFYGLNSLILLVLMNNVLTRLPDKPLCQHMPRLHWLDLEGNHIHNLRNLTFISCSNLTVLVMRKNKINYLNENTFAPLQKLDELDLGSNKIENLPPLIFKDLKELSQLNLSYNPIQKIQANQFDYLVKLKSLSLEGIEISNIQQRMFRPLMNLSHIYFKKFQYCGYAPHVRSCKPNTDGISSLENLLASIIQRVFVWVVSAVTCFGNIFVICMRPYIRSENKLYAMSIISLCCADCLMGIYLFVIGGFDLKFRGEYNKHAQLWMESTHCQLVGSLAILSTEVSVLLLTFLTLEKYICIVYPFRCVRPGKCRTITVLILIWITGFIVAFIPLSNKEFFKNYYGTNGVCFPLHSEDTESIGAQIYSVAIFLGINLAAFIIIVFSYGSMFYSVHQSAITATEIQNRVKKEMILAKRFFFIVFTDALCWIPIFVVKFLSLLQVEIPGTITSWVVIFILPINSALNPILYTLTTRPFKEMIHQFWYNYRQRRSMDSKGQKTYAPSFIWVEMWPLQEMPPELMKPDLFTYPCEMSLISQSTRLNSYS

dog RXFP1 = dog RXFP1 (dog)
rat RXFP1 = molecular target: T3, rat RXFP1 (rat, UniProt Q6R6I6 1-758)
T3 sequence (looked up): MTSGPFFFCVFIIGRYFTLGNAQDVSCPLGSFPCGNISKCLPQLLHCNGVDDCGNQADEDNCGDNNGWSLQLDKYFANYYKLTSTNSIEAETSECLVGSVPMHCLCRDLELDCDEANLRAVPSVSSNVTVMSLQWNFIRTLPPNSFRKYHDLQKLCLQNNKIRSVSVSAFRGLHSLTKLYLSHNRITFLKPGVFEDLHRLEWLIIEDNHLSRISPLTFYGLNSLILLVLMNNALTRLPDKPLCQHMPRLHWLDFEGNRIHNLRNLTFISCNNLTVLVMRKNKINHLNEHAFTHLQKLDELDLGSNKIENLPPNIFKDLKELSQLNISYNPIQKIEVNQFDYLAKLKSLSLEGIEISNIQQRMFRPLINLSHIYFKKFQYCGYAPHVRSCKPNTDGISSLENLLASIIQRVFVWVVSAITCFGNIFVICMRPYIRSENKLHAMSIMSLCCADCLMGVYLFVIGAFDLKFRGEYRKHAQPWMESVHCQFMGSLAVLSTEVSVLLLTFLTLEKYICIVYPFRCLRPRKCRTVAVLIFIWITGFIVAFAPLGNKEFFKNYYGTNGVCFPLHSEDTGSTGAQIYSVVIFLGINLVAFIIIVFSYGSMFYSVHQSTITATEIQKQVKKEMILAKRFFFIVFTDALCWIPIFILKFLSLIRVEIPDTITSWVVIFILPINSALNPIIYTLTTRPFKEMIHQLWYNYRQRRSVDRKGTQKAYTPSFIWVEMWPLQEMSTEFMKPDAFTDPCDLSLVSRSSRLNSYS

mouse RXFP1 = molecular target: T4, mouse RXFP1 (mouse, UniProt Q6R6I7 1-758)
T4 sequence (looked up): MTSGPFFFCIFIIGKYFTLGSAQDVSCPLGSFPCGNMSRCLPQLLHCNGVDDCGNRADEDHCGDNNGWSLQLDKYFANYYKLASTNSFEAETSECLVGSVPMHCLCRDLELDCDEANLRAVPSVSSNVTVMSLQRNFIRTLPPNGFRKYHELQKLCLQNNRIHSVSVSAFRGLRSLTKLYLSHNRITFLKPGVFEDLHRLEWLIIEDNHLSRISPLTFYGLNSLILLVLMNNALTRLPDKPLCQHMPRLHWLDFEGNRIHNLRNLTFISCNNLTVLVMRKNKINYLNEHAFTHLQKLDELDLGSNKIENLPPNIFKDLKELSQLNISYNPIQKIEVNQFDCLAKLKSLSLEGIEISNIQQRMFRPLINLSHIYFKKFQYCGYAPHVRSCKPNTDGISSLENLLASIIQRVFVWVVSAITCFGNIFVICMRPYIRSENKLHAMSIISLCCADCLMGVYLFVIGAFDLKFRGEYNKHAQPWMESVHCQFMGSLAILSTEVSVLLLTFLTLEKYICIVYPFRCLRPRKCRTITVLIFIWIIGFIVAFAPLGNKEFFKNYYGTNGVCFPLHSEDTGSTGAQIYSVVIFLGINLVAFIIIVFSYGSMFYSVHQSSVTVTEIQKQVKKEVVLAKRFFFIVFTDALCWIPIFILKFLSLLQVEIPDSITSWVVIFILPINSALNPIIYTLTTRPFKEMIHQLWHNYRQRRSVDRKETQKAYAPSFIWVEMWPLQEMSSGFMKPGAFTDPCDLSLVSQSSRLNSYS

B1: RLX-A-AQ1-20KPEG (ligand)
chain 1: XLYSALANKCCHVGCTKRSLARFC
chain 2: ASWMEEVIKLCGRELVRAQIAICGMSTWS
modifications: para-acetylphenylalanine (pAcF, X) at position 1 of the A chain, linked to a 20 kDa PEG via an oxime linkage
RLX-A-AQ1-20KPEG Potency Ratio (hRXFP1-1.0), cAMP assay (human RXFP1): 1 fold | RLX-A-AQ1-20KPEG Potency Ratio (hRXFP1-1.0), cAMP assay (cynomolgus monkey RXFP1): 1.6 fold | RLX-A-AQ1-20KPEG Potency Ratio (hRXFP1-1.0), cAMP assay (dog RXFP1): 4.7 fold | RLX-A-AQ1-20KPEG Potency Ratio (hRXFP1-1.0), cAMP assay (rat RXFP1): 0.34 fold | RLX-A-AQ1-20KPEG Potency Ratio (hRXFP1-1.0), cAMP assay (mouse RXFP1): 0.66 fold
